Results reported in patent US9267129B2, “Compositions and methods for conferring herbicide resistance” (BEN-GURION UNIVERSITY OF THE NEGEV RESEARCH AND DEVELOPMENT …, priority 2011, dated 2016).

Test: AHAS catalytic activity, pyruvate dependence
Type: biochemical, Parietochloris incisa
Description: To overexpress the hexahistidine (6xHis)-tagged PiAHAS genes in E. coli strain JM109, plasmids pQE-WT and pQE-MUT were used. These plasmids were constructed by inserting the BamHI-SalI fragment containing the cloned PiAHAS wt and mutant genes into plasmid pQE30 (Qiagen, Hilden, Germany). These plasmids express PiAHAS fused at its N-terminus to the pQE30 6xHis leader. pQE-WT and pQE-MUT were transformed into E. coli for expression. The transformed cells were grown, IPTG induced, and harvested as described previously (Hill C et al. Purification of Escherichia coli acetohydroxyacid synthase isoenzyme II and reconstitution of active enzyme from its individual pure subunits. Biochem. J. 1997, 327, 891-898). Bacterial cells were disrupted by sonication in a binding buffer with 20 mM imidazol, 0.5 M sodium chloride, 50 mM sodium dihydrogen phosphate (pH 8.0), 20 μM FAD and 50 μl/g cells of protease inhibitor cocktail (Sigma-Aldrich, Israel). After 30 min of centrifugation at 20,000×g, the supernatant was loaded on a 1.5×8 cm column of Ni2+-nitrilotriacetatic acid-agarose (Qiagen) previously washed with the binding buffer. The column was then washed with 80 ml of the binding buffer, and the His-AHAS protein eluted with 0.4 M imidazol in the binding buffer. The fractions were dialyzed against 50 mM potassium phosphate buffer (pH 7.6), containing 20 μM FAD. The protein was concentrated for storage at −20 °C by dialysis against same buffer, containing 50% glycerol. The AHAS catalytic activity was determined as previously described (Bar-Ilan A et al. Binding and activation of thiamin diphosphate in acetohydroxyacid synthase. Biochemistry (N.Y.) 2001, 40, 11946-11954). The reactions were carried for 20 min at 37 °C in 0.1 M potassium phosphate buffer (pH 7.6), containing 10 mM magnesium chloride, 0.1 mM ThDP, 75 μM FAD, 5 mM EDTA, 1 mM DTT with 100 mM pyruvate as substrate, except where otherwise indicated. The activity is expressed in units (U) (1 U=1 μmol of acetolactate formed min^−1). Km for pyruvate and Ki for SMM were determined by varying the concentration of the factor in question. Protein concentration was determined by the dye-binding method of Bradford (Bradford MM. A rapid and sensitive method for the quantitation of microgram quantities of protein utilizing the principle of protein-dye binding. Anal. Biochem. 1976, 72, 248-254), with bovine serum albumin as standard. Km calculations were fit with the program “Sigma-Plot” to Michaelis-Menten equation. For Ki calculations, the lines were fit to equations: V=Vo×Ki/(Ki+[SMM]), for wild-type; V=Vf+(Vo−Vf)×Ki/(Ki+[SMM]), for mutant.
Enzymatic activity of the wild type and mutant forms of AHAS in the presence of different Pyruvate substrate concentrations was assayed with 6.9 μg/ml of PiAHAS wild-type protein and 11.5 μg/ml of mutant protein (FIG. 5) and the specific activity and Km were calculated.

| Molecule | Km (37° C., pH 7.6) | Specific activity (37° C., pH 7.6) | Specific activity (purified protein) | decrease in affinity to the Pyruvate substrate compared to wild type (mutant versus wild type) | decrease in specific / enzymatic activity compared to wild type (mutant versus wild type) |
| --- | --- | --- | --- | --- | --- |
| Wild-type: Parietochloris incisa acetohydroxyacid synthase (AHAS), SEQ ID NO: 1, expressed as N-terminal hexahistidine-tagged protein (protein, listed as Parietochloris incisa, N-terminal hexahistidine tag) MQGTMRPTAGALQQTVGCWHVPAGIPHAQQALRGRILPEELKQRCSATKPRAARQSAVTAAKLAEGKAGTPSRSLRQQPAAPQQQQQQQDSNELVALREAAKASLSSPAPAEWVDRFGSEPRKGADILVQCLEREGAFRVFAYPGGASMEIHQALTRSGIIRNILCRHEQGEIFAAEGYAKCTGDVGVCIATSGPGATNLVTGLADAMLDSVPLVAITGQVPRKMIGTDGFQETPIVEVTRQITKHNFLVMDLDDLPRIMKEAFYLARTGRPGPVLVDVPKDIQQQLAVPDWDTPMAISGYMSRLPAPPNPSQLAAVVRALKEAKRPTLYVGGGALDSSAELREFVRLTGIPVAQTLMGLGTFPEEDPLALQMLGMHGTVYANYAVNDSDLLLAFGVRFDDRVTGKLEAFASRACIVHIDIDPAEICKNKEAHIPICADLRASLIALNELLRRDPLPEGAFADWRAAIEAKKQEFPMTFPERDDVIIPQRAIQMLYEETNGEAIISTGVGQHQMWAAQWYQYNEPRRWVTSGGLGSMGFGLPSALGAAAVAYDGTDGRPKKVVVDIDGDGSFLMNCQELATAAVEGLETKIMILNNQHLGMVVQWEDRFYKANRAHTYLGHRANEYHTTLDESHIFPDFVMMAKSCGVPGRRVIKPEELRGAIREMLDTPGPFLLDVMVPHVEHVLPMIPGGGSFKDIITKGDGRDEY | 49.4 ± 2.1 mM | 3.00 ± 0.05 U × mg^−1 | 3 U/mg | – | – |
| Mutant: Parietochloris incisa AHAS with Trp605 substituted by Serine (W605S), SEQ ID NO: 2, hexahistidine-tagged (protein, listed as Parietochloris incisa, hexahistidine tag) MQGTMRPTAGALQQTVGCWHVPAGIPHAQQALRGRILPEELKQRCSATKPRAARQSAVTAAKLAEGKAGTPSRSLRQQPAAPQQQQQQQDSNELVALREAAKASLSSPAPAEWVDRFGSEPRKGADILVQCLEREGAFRVFAYPGGASMEIHQALTRSGIIRNILCRHEQGEIFAAEGYAKCTGDVGVCIATSGPGATNLVTGLADAMLDSVPLVAITGQVPRKMIGTDGFQETPIVEVTRQITKHNFLVMDLDDLPRIMKEAFYLARTGRPGPVLVDVPKDIQQQLAVPDWDTPMAISGYMSRLPAPPNPSQLAAVVRALKEAKRPTLYVGGGALDSSAELREFVRLTGIPVAQTLMGLGTFPEEDPLALQMLGMHGTVYANYAVNDSDLLLAFGVRFDDRVTGKLEAFASRACIVHIDIDPAEICKNKEAHIPICADLRASLIALNELLRRDPLPEGAFADWRAAIEAKKQEFPMTFPERDDVIIPQRAIQMLYEETNGEAIISTGVGQHQMWAAQWYQYNEPRRWVTSGGLGSMGFGLPSALGAAAVAYDGTDGRPKKVVVDIDGDGSFLMNCQELATAAVEGLETKIMILNNQHLGMVVQSEDRFYKANRAHTYLGHRANEYHTTLDESHIFPDFVMMAKSCGVPGRRVIKPEELRGAIREMLDTPGPFLLDVMVPHVEHVLPMIPGGGSFKDIITKGDGRDEY | 71.7 ± 2.9 mM | 1.46 ± 0.03 U × mg^−1 | – | 2 fold | 2 fold |
